Measured values as given in patent US20210324417A1 (RESEARCH INSTITUTE AT NATIONWIDE CHILDREN S HOSPITAL, published 2021).

Target: neuropilin-1 (NRP1) (mouse (endogenous protein of the mouse …, UniProt P97333 22-923))
Experiment: co-immunoprecipitation with anti-NRP1 antibody from NSC-34 lysates, anti-V5 Western blot
Description: Cells were grown to 70% confluency before transfection. A human wild-type, P234KY, or ΔETAQ GARS cDNA was cloned into the pcDNA6 plasmid to express GARS in-frame with a V5 tag. Transfections were performed using Lipofectamine 2000 (Invitrogen) according to the manufacturer's instruction. For cell lysate preparations, NSC-34 cells (36 hours after transfection) were washed twice in phosphate-buffered saline (PBS), scraped into PBS, pelleted, and resuspended in Pierce IP Lysis Buffer (Thermo Scientific) for 30 min and centrifuged for 7 min at 12,000×g; the insoluble fraction was discarded. Protein G beads (Invitrogen) were pre-incubated with anti-NRP1 antibody (Abcam) or rabbit IgG (Cell signaling) for 30 min before mixed with the cell lysates for overnight. […] Wild-type and mutant GARS proteins were detected using mouse monoclonal V5 antibody purchased from Invitrogen. NRP1 was detected by utilizing the same antibody for co-immunoprecipitation. […]
After immunoprecipitation with an anti-NRP1 antibody, proteins were subjected to Western blot analysis using an anti-V5 antibody. […] Nevertheless, no interaction between ΔETAQ GARS and NRP1 was detected in unbiased mass spectrometry analyses of proteins immuno-precipitated from mouse neuroblastoma (MN1) cells expressing FLAG-tagged wild-type or V5-tagged ΔETAQ GARS.

B1: V5-tagged wild-type human GARS (glycyl-tRNA synthetase) (enzyme, UniProt P41250-2 1-685, looked up)
chain: MDGAGAEEVLAPLRLAVRQQGDLVRKLKEDKAPQVDVDKAVAELKARKRVLEAKELALQPKDDIVDRAKMEDTLKRRFFYDQAFAIYGGVSGLYDFGPVGCALKNNIIQTWRQHFIQEEQILEIDCTMLTPEPVLKTSGHVDKFADFMVKDVKNGECFRADHLLKAHLQKLMSDKKCSVEKKSEMESVLAQLDNYGQQELADLFVNYNVKSPITGNDLSPPVSFNLMFKTFIGPGGNMPGYLRPETAQGIFLNFKRLLEFNQGKLPFAAAQIGNSFRNEISPRSGLIRVREFTMAEIEHFVDPSEKDHPKFQNVADLHLYLYSAKAQVSGQSARKMRLGDAVEQGVINNTVLGYFIGRIYLYLTKVGISPDKLRFRQHMENEMAHYACDCWDAESKTSYGWIEIVGCADRSCYDLSCHARATKVPLVAEKPLKEPKTVNVVQFEPSKGAIGKAYKKDAKLVMEYLAICDECYITEMEMLLNEKGEFTIETEGKTFQLTKDMINVKRFQKTLYVEEVVPNVIEPSFGLGRIMYTVFEHTFHVREGDEQRTFFSFPAVVAPFKCSVLPLSQNQEFMPFVKELSEALTRHGVSHKVDDSSGSIGRRYARTDEIGVAFGVTIDFDTVNKTPHTATLRDRDSMRQIRAEISELPSIVQDLANGNITWADVEARYPLFEGQETGKKETIEE
notes: Expressed by transfection in mouse NSC-34 cells and tested from the cell lysate; also called wild-type GARS; WT GARS; not shown: V5 tag expressed in-frame from pcDNA6
  binding result: no binding
